Test results: US20240261333A1, “NOVEL TARGETS FOR ENHANCING ANTI-TUMOR IMMUNITY” (THE BROAD INSTITUTE, INC., priority 2021, published 2024)

What was measured:
[1] = system: A375 cells overexpressing B3GNT2; assay: Intra- and extra-cellular poly-LacNAc by tomato lectin staining, flow cytometry; type: cell-based, human; conditions: A375 overexpressing B3GNT2, pretreated with different concentrations of inhibitor
Description: (§1) For glycosylation inhibition, cells were treated with 20 μg/mL Kifunensine (Cayman Chemical 10009437) or 2 mM Benzyl 2-acetamido-2-deoxy-alpha-D-galactopyranoside (BAG; Millipore Sigma B4894-100MG) for 48 h to inhibit N- and O-glycosylation respectively unless otherwise indicated. For MCL1 inhibition, cells were treated with 1-10 μM of S63845 (Selleck Chemicals S8383) or AZD5991 (Selleck Chemicals S8643) for 4 h before incubation with T cells. Both glycosylation and MCL1 inhibitors were maintained at indicated concentrations during co-culture with T cells.
Per condition, 5×10^5 cells were pelleted at 200×g for 5 min and washed once with PBS. Cell were fixed in 4% Formaldehyde in PBS at 4° C. for 10 mins. […] For each sample, 10,000 cells were analyzed on a CytoFLEX Flow Cytometer (Beckman Coulter) and quantified with FlowJo (FlowJo). For each experiment, median fluorescence values for 3 biological replicates were compared to determine statistical significance.

[2] = system: ESO T cells co-cultured with A375 cells; assay: IFNγ ELISA in culture media of the T cell cytotoxicity assay; type: cell-based, human; conditions: B3GNT2-overexpressing A375 pretreated with inhibitor, E:T ratio of 3; kifunensine having a stronger effect
Description: Expanded T cells were thawed and maintained in culture media for 8-10 h before incubation with cancer cells. Cancer cells were seeded in 96-well plates and allowed to attach for 3-4 h before T cells were added at the appropriate effector to target cell (E:T) ratio. Paired controls with no T cells added were included for each condition. After 18 h, cancer cells were washed twice with PBS to remove T cells, passaged, and cultured for 2 days. Primary patient-derived cell models were not passaged after T cell co-culture. Viability was measured using CellTiter-Glo (Promega G7571). For each E:T ratio, percent survival was calculated as viability of the cells incubated with T cells divided by viability of the paired control that was not incubated with T cells. […]
To challenge cells with cytokines, cells were incubated with Interferon-γ (IFNγ; Cell Signaling Technology 80385S), FasL (AdipoGen AG-40B-0130-3010), TRAIL (R&D Systems 375-TL-010), or TNF-α (AdipoGen AG-40B-0019-3010) for 24 h. […] Cell viability was measured using CellTiter-Glo (Promega G7571) and protein was harvested for Western blots. […] IFNγ in the cell culture media of the T cell cytotoxic assay was quantified using an ELISA kit (Thermo Fisher Scientific KHC4021). […]

[3] = system: A375 (NY-ESO-1+, HLA-A2+) melanoma cells; assay: T cell cytotoxicity assay (CellTiter-Glo), A375 against ESO T cells; type: cell-based, human; conditions: B3GNT2-overexpressing A375 pretreated with inhibitor, E:T ratio of 3, kifunensine having a stronger effect
Description: Expanded T cells were thawed and maintained in culture media for 8-10 h before incubation with cancer cells. Cancer cells were seeded in 96-well plates and allowed to attach for 3-4 h before T cells were added at the appropriate effector to target cell (E:T) ratio. Paired controls with no T cells added were included for each condition. After 18 h, cancer cells were washed twice with PBS to remove T cells, passaged, and cultured for 2 days. Primary patient-derived cell models were not passaged after T cell co-culture. Viability was measured using CellTiter-Glo (Promega G7571). For each E:T ratio, percent survival was calculated as viability of the cells incubated with T cells divided by viability of the paired control that was not incubated with T cells. For example, CD274-overexpressing melanoma cells that were co-cultured with ESO T cells were compared to CD274-overexpressing melanoma cells that were cultured without T cells in parallel. As an alternative cytotoxicity assay, A375 cells stably expressing Gaussia luciferase were co-cultured with ESO T cells. At each time point, 10% of cell culture media was used for the Gaussia luciferase assay (Targeting Systems GAR-2B) to directly measure cytotoxicity.
as §1

[4] = system: A375 cells overexpressing B3GNT2; assay: Binding of recombinant T cell proteins to A375 cells, flow cytometry; type: cell-based, human; conditions: B3GNT2-overexpressing A375 treated with inhibitor; CD2, 4-1BB, TREML2, NKG2D
Description: as §1
Per condition, 5×10^5 cells were pelleted at 200×g for 5 min and washed once with PBS. Cell were fixed in 4% Formaldehyde in PBS at 4° C. for 10 mins. Cells were washed twice with PBS and resuspended in PBS with 25 μg/mL recombinant Fc chimera proteins [PVRIG (R&D Systems 9365-PV-050), CD226 (R&D Systems 666-DN-050), NKG2D (R&D 1299-NK-050), TREML2 (R&D Systems 3259-TL-050), CD2 (R&D Systems 1856-CD-050), CD96 (R&D Systems 9360-CD-050), TIGIT (BPS Bioscience 71186), CD27 (BPS Bioscience 71176), or 4-1BB (TNFRSF9; Sino Bio 10041-H03H)], 0.1 μg/mL HLA-A2:NY-ESO-1 Fab (Stewart-Jones et al., 2009), 5 μg/mL Fas antibody (Millipore Sigma 05-201), 25 μg/mL TNFRSF10B antibody (Novus Biologicals NB100-56618, 1:200), or Dylight 649 labeled Tomato Lectin (Vector Laboratories DL-1178, 1:100). Cells were incubated at 4° C. for 1 h. Cells were washed twice with PBS and resuspended in PBS with the appropriate secondary antibody [IgG Fc PE (Thermo Fisher Scientific 12-4998-82, 1:50), His Tag Alexa Fluor 647 (Thermo Fisher Scientific MA121315A647), mouse Alexa Fluor 568 (Thermo Fisher Scientific A-11031), or rabbit Alexa Fluor 647 (Thermo Fisher Scientific A-21244)]. Cells stained with Tomato Lectin were not incubated with additional secondary antibodies. […] For each sample, 10,000 cells were analyzed on a CytoFLEX Flow Cytometer (Beckman Coulter) and quantified with FlowJo (FlowJo). For each experiment, median fluorescence values for 3 biological replicates were compared to determine statistical significance.

[5] = system: N-glycan synthesis; conditions: cited from earlier work
[6] = target: T1, B3GNT2 (Homo sapiens, UniProt Q9NY97); assay: Co-IP of FLAG-tagged B3GNT2 followed by mass spectrometry; type: cell-based; parameters: C-term IgG / C-term flag: unit not given here
T1 construct: The respective ORFs of candidate genes [CD274 (NM_014143), MCL1 (NM_021960), JUNB (NM_002229), and B3GNT2 (NM_006577)] were synthesized; expressed in transfected cells; host or cells: A375 melanoma cells (lentiviral ORF overexpression)
T1 sequence (Q9NY97 1-397): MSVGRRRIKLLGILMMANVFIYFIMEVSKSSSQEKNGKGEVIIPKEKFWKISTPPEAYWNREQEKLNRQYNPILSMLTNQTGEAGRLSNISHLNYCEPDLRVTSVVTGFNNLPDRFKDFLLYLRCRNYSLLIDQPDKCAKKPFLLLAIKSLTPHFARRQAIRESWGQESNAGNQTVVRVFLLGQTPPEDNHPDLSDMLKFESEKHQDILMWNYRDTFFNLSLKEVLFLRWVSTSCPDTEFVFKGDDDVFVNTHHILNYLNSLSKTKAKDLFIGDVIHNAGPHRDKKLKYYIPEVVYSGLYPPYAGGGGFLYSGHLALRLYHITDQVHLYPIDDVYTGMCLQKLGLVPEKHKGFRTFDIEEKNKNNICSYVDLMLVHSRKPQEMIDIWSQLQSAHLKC
Description: Cells were plated in 10-cm cell culture dishes and grown to 60-80% confluency. For each condition, two biological replicates were harvested for co-IP. Cells were washed with PBS and 4 mL of lysis buffer (20 mM HEPES, 1% Triton X-100, 150 mM NaCl, 1 mM EDTA, and 10% glycerol) containing protease inhibitor cocktail was added. Cells were scraped and lysate was incubated at 4° C. under rotary agitation for 1 h. Lysate was centrifuged at 14,000×g for 10 min at 4° C. Supernatant was transferred to a new tube and an aliquot was taken as the input. […] For Western blots, 10 μg/mL Chicken Anti-FLAG (Aves labs ET-DY100) and IgY control (R&D Systems AB-101-C) antibodies were biotinylated (Thermo Fisher Scientific 90407) and added to the respective conditions. Lysates with antibodies were incubated at 4° C. under rotary agitation overnight. For each mL of lysate, 50 μL of Pierce Protein A/G Magnetic Beads (Mass spectrometry; Thermo Fisher Scientific 88803) or Pierce Streptavidin Magnetic Beads (Western blot; Thermo Fisher Scientific 88817) was washed twice with lysis buffer. Lysates with antibodies were added to the beads and incubated at 4° C. under rotary agitation for 4 h. Beads were washed with lysis buffer 3 times and resuspended in lysis buffer for storage. […] This solution was subjected to solid phase extraction to concentrate the peptides and remove unwanted reagents followed by injection onto a Shimadzu HPLC with fraction collector. Eight fractions were collected and after concentration were injected on a Waters NanoAcquity HPLC equipped with a self-packed Aeris 3 μm C18 analytical column 0.075 mm by 20 cm, (Phenomenex). Peptides were eluted using standard reverse-phase gradients. The effluent from the column was analyzed using a Thermo Orbitrap Elite mass spectrometer (nanospray configuration) operated in a data dependent manner for 54 minutes. […] Scaffold Q+S (Proteome Software) was used to provide consensus reports for the identified proteins.

[7] = Co-IP with FLAG antibody, C-terminally FLAG-tagged B3GNT2, mass spectrometry count, unit not given
[8] = Co-IP with FLAG antibody, N-terminally FLAG-tagged B3GNT2, mass spectrometry count, unit not given
[9] = Co-IP with IgG control antibody, C-terminally FLAG-tagged B3GNT2, mass spectrometry count, unit not given
[10] = Co-IP with IgG control antibody, N-terminally FLAG-tagged B3GNT2, mass spectrometry count, unit not given
[11] = Co-IP followed by mass spectrometry of B3GNT2, C-term tag, FLAG pull-down
[12] = Co-IP followed by mass spectrometry of B3GNT2, C-term tag, IgG pull-down
[13] = Co-IP followed by mass spectrometry of B3GNT2, N-term tag, FLAG pull-down
[14] = Co-IP followed by mass spectrometry of B3GNT2, N-term tag, IgG pull-down

Compound	C-term flag [6, 7]	N-term FLAG [6, 8]	C-term IgG [6, 9]	N-term IgG [6, 10]	C-term flag [6, 11]	C-term IgG [6, 12]	N-term FLAG [6, 13]	N-term IgG [6, 14]	also measured
CC(=O)N[C@H]1[C@@H](OCc2ccccc2)O[C@H](CO)[C@H](O)[C@@H]1O [BAG, benzyl-2-acetamido-2-deoxy-α-D-galactopyranoside]									poly-LacNAc measured by tomato lectin staining [1]: reduced poly-LacNAc added by B3GNT2 in a dosage-dependent manner; T cell IFNγ secretion [2]: increased T cell IFNγ secretion; Cell survival against T cell cytotoxicity [3]: reduced A375 survival; Binding of recombinant T cell proteins to A375 cells [4]: rescued the reduction in T cell protein binding
tunicamycin									Inhibition of N-glycan synthesis [5]: potent inhibitor of N-glycan synthesis
SLC27A4	2	0	0	0					
TUBA1B	0	76	0	0					
HNRNPA2B1					8	9	7	4	
PABPC1					41	30	31	37	
TNKS1BP1					8	2	2	4	
HNRNPU					12	0	0	2	
TRIM21					0	0	6	0	
HSPA5	130	70	12	9					
TUBB3	82	115	0	0					

The next lines start with results.

C-term flag [6, 7]	N-term FLAG [6, 8]	C-term IgG [6, 9]	N-term IgG [6, 10]	C-term flag [6, 11]	C-term IgG [6, 12]	N-term FLAG [6, 13]	N-term IgG [6, 14]	Compound	also measured
				2	0	4	0	PSMA7	
2	0	0	0					PPIB	
				0	0	4	0	PSMB5	
3	0	0	0					HERC2	
				3	0	0	0	SUPT16H	
				2	0	3	2	TPI1	
23	3	0	0					P4HB	
16	18	6	11					GAPDH	
				6	2	2	2	EIF4G1	
16	0	0	0					FKBP10	
				5	0	0	0	DHX9	
2	0	0	0					ABCD1	
